Test results taken from IntAct's records for PubMed 11069292.

B1: Transcription factor PIF3 (Arabidopsis thaliana (Mouse-ear cress)), O80536 (parent)
chain: MPLFELFRLTKAKLESAQDRNPSPPVDEVVELVWENGQISTQSQSSRSRNIPPPQANSSRAREIGNGSKTTMVDEIPMSVPSLMTGLSQDDDFVPWLNHHPSLDGYCSDFLRDVSSPVTVNEQESDMAVNQTAFPLFQRRKDGNESAPAASSSQYNGFQSHSLYGSDRARDLPSQQTNPDRFTQTQEPLITSNKPSLVNFSHFLRPATFAKTTNNNLHDTKEKSPQSPPNVFQTRVLGAKDSEDKVLNESVASATPKDNQKACLISEDSCRKDQESEKAVVCSSVGSGNSLDGPSESPSLSLKRKHSNIQDIDCHSEDVEEESGDGRKEAGPSRTGLGSKRSRSAEVHNLSERRRRDRINEKMRALQELIPNCNKVDKASMLDEAIEYLKSLQLQVQIMSMASGYYLPPAVMFPPGMGHYPAAAAAMAMGMGMPYAMGLPDLSRGGSSVNHGPQFQVSGMQQQPVAMGIPRVSGGGIFAGSSTIGNGSTRDLSGSKDQTTTNNNSNLKPIKRKQGSSDQFCGSS

Variants of: B1
Conditions: with phyb_arath PHYB

effect of a mutation on the interaction | Variant
decreasing interaction | G165V
